From doi:10.1101/2024.08.22.609182

Molecular target: AIFM1 OM (obligate monomeric AIFM1 variant, triple mutant in the dimerisation interface) (human) (UniProt O95831)
Assay: mass photometry

Sequence of AIFM1 OM (obligate monomeric AIFM1 variant, triple mutant in the dimerisation interface) (human) (O95831 102-613, change not shown): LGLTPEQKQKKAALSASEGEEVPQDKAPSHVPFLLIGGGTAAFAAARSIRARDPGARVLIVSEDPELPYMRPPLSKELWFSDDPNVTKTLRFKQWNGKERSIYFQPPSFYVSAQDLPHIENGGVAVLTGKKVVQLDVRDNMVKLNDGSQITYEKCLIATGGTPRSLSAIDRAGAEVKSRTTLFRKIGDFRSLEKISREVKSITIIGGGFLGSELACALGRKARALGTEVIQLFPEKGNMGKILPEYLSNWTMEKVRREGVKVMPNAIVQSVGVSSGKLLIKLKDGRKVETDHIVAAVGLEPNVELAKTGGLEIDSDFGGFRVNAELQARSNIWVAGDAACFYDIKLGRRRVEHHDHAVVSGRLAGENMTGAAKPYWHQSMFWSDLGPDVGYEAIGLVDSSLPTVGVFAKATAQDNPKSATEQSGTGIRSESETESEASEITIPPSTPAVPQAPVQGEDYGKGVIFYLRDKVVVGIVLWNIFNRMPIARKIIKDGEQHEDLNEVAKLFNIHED

Q: With “adenylate kinase 2 (AK2), recombinant human (from UniProt P54819 1-239) (enzyme)” as the substance, how does the stoichiometry N (AK2 per AIFM1 (printed as 1:1)) read?
A: The stoichiometry N (AK2 per AIFM1 (printed as 1:1)) was 1.
